Our source for the cAMP EC50 (assay 1) values is patent US20190185537A1 (AstraZeneca / MedImmune, published 2019).

Numbered stars: 1 amine (or outer) side, 2 acyl side, 3 side chain; on linkers, the order of the positions; unused ones are H or OH. Side chains are listed from the residue outwards. Ends that are not written are not given here. * marks the point of attachment. γGlu = O=C(O)[C@H](CCC(=O)[*:2])N[*:1]; Palmitoyl = CCCCCCCCCCCCCCCC(=O)*

The chains are these.
B1: g601 (peptide)
peptide: HSQGTFTSDYSKYK([γGlu-Palmitoyl])DSRRAQDFVQWLEAGG-NH2
modifications: N-terminus assumed
SMILES: CCCCCCCCCCCCCCCC(=O)N[C@@H](CCC(=O)NCCCC[C@H](NC(=O)[C@H](Cc1ccc(O)cc1)NC(=O)[C@H](CCCCN)NC(=O)[C@H](CO)NC(=O)[C@H](Cc1ccc(O)cc1)NC(=O)[C@H](CC(=O)O)NC(=O)[C@H](CO)NC(=O)[C@@H](NC(=O)[C@H](Cc1ccccc1)NC(=O)[C@@H](NC(=O)CNC(=O)[C@H](CCC(N)=O)NC(=O)[C@H](CO)NC(=O)[C@@H](N)Cc1c[nH]cn1)[C@@H](C)O)[C@@H](C)O)C(=O)N[C@@H](CC(=O)O)C(=O)N[C@@H](CO)C(=O)N[C@@H](CCCNC(=N)N)C(=O)N[C@@H](CCCNC(=N)N)C(=O)N[C@@H](C)C(=O)N[C@@H](CCC(N)=O)C(=O)N[C@@H](CC(=O)O)C(=O)N[C@@H](Cc1ccccc1)C(=O)N[C@H](C(=O)N[C@@H](CCC(N)=O)C(=O)N[C@@H](Cc1c[nH]c2ccccc12)C(=O)N[C@@H](CC(C)C)C(=O)N[C@@H](CCC(=O)O)C(=O)N[C@@H](C)C(=O)NCC(=O)NCC(N)=O)C(C)C)C(=O)O
B2: g780 (peptide)
peptide: HSQGTFTSDYSKYK([γGlu-Palmitoyl])DSRRARDFVAWLEAGG-NH2
modifications: N-terminus assumed
SMILES: CCCCCCCCCCCCCCCC(=O)N[C@@H](CCC(=O)NCCCC[C@H](NC(=O)[C@H](Cc1ccc(O)cc1)NC(=O)[C@H](CCCCN)NC(=O)[C@H](CO)NC(=O)[C@H](Cc1ccc(O)cc1)NC(=O)[C@H](CC(=O)O)NC(=O)[C@H](CO)NC(=O)[C@@H](NC(=O)[C@H](Cc1ccccc1)NC(=O)[C@@H](NC(=O)CNC(=O)[C@H](CCC(N)=O)NC(=O)[C@H](CO)NC(=O)[C@@H](N)Cc1c[nH]cn1)[C@@H](C)O)[C@@H](C)O)C(=O)N[C@@H](CC(=O)O)C(=O)N[C@@H](CO)C(=O)N[C@@H](CCCNC(=N)N)C(=O)N[C@@H](CCCNC(=N)N)C(=O)N[C@@H](C)C(=O)N[C@@H](CCCNC(=N)N)C(=O)N[C@@H](CC(=O)O)C(=O)N[C@@H](Cc1ccccc1)C(=O)N[C@H](C(=O)N[C@@H](C)C(=O)N[C@@H](Cc1c[nH]c2ccccc12)C(=O)N[C@@H](CC(C)C)C(=O)N[C@@H](CCC(=O)O)C(=O)N[C@@H](C)C(=O)NCC(=O)NCC(N)=O)C(C)C)C(=O)O
B3: g876 (peptide)
peptide: HSQGTFTSDYSEYK([γGlu-Palmitoyl])DSRRARDFVEWLEAGG-NH2
modifications: N-terminus assumed
SMILES: CCCCCCCCCCCCCCCC(=O)N[C@@H](CCC(=O)NCCCC[C@H](NC(=O)[C@H](Cc1ccc(O)cc1)NC(=O)[C@H](CCC(=O)O)NC(=O)[C@H](CO)NC(=O)[C@H](Cc1ccc(O)cc1)NC(=O)[C@H](CC(=O)O)NC(=O)[C@H](CO)NC(=O)[C@@H](NC(=O)[C@H](Cc1ccccc1)NC(=O)[C@@H](NC(=O)CNC(=O)[C@H](CCC(N)=O)NC(=O)[C@H](CO)NC(=O)[C@@H](N)Cc1c[nH]cn1)[C@@H](C)O)[C@@H](C)O)C(=O)N[C@@H](CC(=O)O)C(=O)N[C@@H](CO)C(=O)N[C@@H](CCCNC(=N)N)C(=O)N[C@@H](CCCNC(=N)N)C(=O)N[C@@H](C)C(=O)N[C@@H](CCCNC(=N)N)C(=O)N[C@@H](CC(=O)O)C(=O)N[C@@H](Cc1ccccc1)C(=O)N[C@H](C(=O)N[C@@H](CCC(=O)O)C(=O)N[C@@H](Cc1c[nH]c2ccccc12)C(=O)N[C@@H](CC(C)C)C(=O)N[C@@H](CCC(=O)O)C(=O)N[C@@H](C)C(=O)NCC(=O)NCC(N)=O)C(C)C)C(=O)O
B4: g850 (peptide)
peptide: HSQGTFTSDYSRYK([γGlu-Palmitoyl])DSRSARDFVAWLEA-NH2
modifications: N-terminus assumed
SMILES: CCCCCCCCCCCCCCCC(=O)N[C@@H](CCC(=O)NCCCC[C@H](NC(=O)[C@H](Cc1ccc(O)cc1)NC(=O)[C@H](CCCNC(=N)N)NC(=O)[C@H](CO)NC(=O)[C@H](Cc1ccc(O)cc1)NC(=O)[C@H](CC(=O)O)NC(=O)[C@H](CO)NC(=O)[C@@H](NC(=O)[C@H](Cc1ccccc1)NC(=O)[C@@H](NC(=O)CNC(=O)[C@H](CCC(N)=O)NC(=O)[C@H](CO)NC(=O)[C@@H](N)Cc1c[nH]cn1)[C@@H](C)O)[C@@H](C)O)C(=O)N[C@@H](CC(=O)O)C(=O)N[C@@H](CO)C(=O)N[C@@H](CCCNC(=N)N)C(=O)N[C@@H](CO)C(=O)N[C@@H](C)C(=O)N[C@@H](CCCNC(=N)N)C(=O)N[C@@H](CC(=O)O)C(=O)N[C@@H](Cc1ccccc1)C(=O)N[C@H](C(=O)N[C@@H](C)C(=O)N[C@@H](Cc1c[nH]c2ccccc12)C(=O)N[C@@H](CC(C)C)C(=O)N[C@@H](CCC(=O)O)C(=O)N[C@@H](C)C(N)=O)C(C)C)C(=O)O
B5: g836 (peptide)
peptide: HSQGTFTSDYSKYK([γGlu-Palmitoyl])DSERARDFVEWLEAGG-NH2
modifications: N-terminus assumed
SMILES: CCCCCCCCCCCCCCCC(=O)N[C@@H](CCC(=O)NCCCC[C@H](NC(=O)[C@H](Cc1ccc(O)cc1)NC(=O)[C@H](CCCCN)NC(=O)[C@H](CO)NC(=O)[C@H](Cc1ccc(O)cc1)NC(=O)[C@H](CC(=O)O)NC(=O)[C@H](CO)NC(=O)[C@@H](NC(=O)[C@H](Cc1ccccc1)NC(=O)[C@@H](NC(=O)CNC(=O)[C@H](CCC(N)=O)NC(=O)[C@H](CO)NC(=O)[C@@H](N)Cc1c[nH]cn1)[C@@H](C)O)[C@@H](C)O)C(=O)N[C@@H](CC(=O)O)C(=O)N[C@@H](CO)C(=O)N[C@@H](CCC(=O)O)C(=O)N[C@@H](CCCNC(=N)N)C(=O)N[C@@H](C)C(=O)N[C@@H](CCCNC(=N)N)C(=O)N[C@@H](CC(=O)O)C(=O)N[C@@H](Cc1ccccc1)C(=O)N[C@H](C(=O)N[C@@H](CCC(=O)O)C(=O)N[C@@H](Cc1c[nH]c2ccccc12)C(=O)N[C@@H](CC(C)C)C(=O)N[C@@H](CCC(=O)O)C(=O)N[C@@H](C)C(=O)NCC(=O)NCC(N)=O)C(C)C)C(=O)O
B6: g817 (peptide)
peptide: HSQGTFTSDYSKYK([γGlu-Palmitoyl])DSRAAQDFVQWLEAGG-NH2
modifications: N-terminus assumed
SMILES: CCCCCCCCCCCCCCCC(=O)N[C@@H](CCC(=O)NCCCC[C@H](NC(=O)[C@H](Cc1ccc(O)cc1)NC(=O)[C@H](CCCCN)NC(=O)[C@H](CO)NC(=O)[C@H](Cc1ccc(O)cc1)NC(=O)[C@H](CC(=O)O)NC(=O)[C@H](CO)NC(=O)[C@@H](NC(=O)[C@H](Cc1ccccc1)NC(=O)[C@@H](NC(=O)CNC(=O)[C@H](CCC(N)=O)NC(=O)[C@H](CO)NC(=O)[C@@H](N)Cc1c[nH]cn1)[C@@H](C)O)[C@@H](C)O)C(=O)N[C@@H](CC(=O)O)C(=O)N[C@@H](CO)C(=O)N[C@@H](CCCNC(=N)N)C(=O)N[C@@H](C)C(=O)N[C@@H](C)C(=O)N[C@@H](CCC(N)=O)C(=O)N[C@@H](CC(=O)O)C(=O)N[C@@H](Cc1ccccc1)C(=O)N[C@H](C(=O)N[C@@H](CCC(N)=O)C(=O)N[C@@H](Cc1c[nH]c2ccccc12)C(=O)N[C@@H](CC(C)C)C(=O)N[C@@H](CCC(=O)O)C(=O)N[C@@H](C)C(=O)NCC(=O)NCC(N)=O)C(C)C)C(=O)O
B7: g805 (peptide)
peptide: HSQGTFTSDYSKYK([γGlu-Palmitoyl])DSRRARDFVEWLEAGG-NH2
modifications: N-terminus assumed
SMILES: CCCCCCCCCCCCCCCC(=O)N[C@@H](CCC(=O)NCCCC[C@H](NC(=O)[C@H](Cc1ccc(O)cc1)NC(=O)[C@H](CCCCN)NC(=O)[C@H](CO)NC(=O)[C@H](Cc1ccc(O)cc1)NC(=O)[C@H](CC(=O)O)NC(=O)[C@H](CO)NC(=O)[C@@H](NC(=O)[C@H](Cc1ccccc1)NC(=O)[C@@H](NC(=O)CNC(=O)[C@H](CCC(N)=O)NC(=O)[C@H](CO)NC(=O)[C@@H](N)Cc1c[nH]cn1)[C@@H](C)O)[C@@H](C)O)C(=O)N[C@@H](CC(=O)O)C(=O)N[C@@H](CO)C(=O)N[C@@H](CCCNC(=N)N)C(=O)N[C@@H](CCCNC(=N)N)C(=O)N[C@@H](C)C(=O)N[C@@H](CCCNC(=N)N)C(=O)N[C@@H](CC(=O)O)C(=O)N[C@@H](Cc1ccccc1)C(=O)N[C@H](C(=O)N[C@@H](CCC(=O)O)C(=O)N[C@@H](Cc1c[nH]c2ccccc12)C(=O)N[C@@H](CC(C)C)C(=O)N[C@@H](CCC(=O)O)C(=O)N[C@@H](C)C(=O)NCC(=O)NCC(N)=O)C(C)C)C(=O)O

Chain of human GLP-1 receptor (P43220 24-463): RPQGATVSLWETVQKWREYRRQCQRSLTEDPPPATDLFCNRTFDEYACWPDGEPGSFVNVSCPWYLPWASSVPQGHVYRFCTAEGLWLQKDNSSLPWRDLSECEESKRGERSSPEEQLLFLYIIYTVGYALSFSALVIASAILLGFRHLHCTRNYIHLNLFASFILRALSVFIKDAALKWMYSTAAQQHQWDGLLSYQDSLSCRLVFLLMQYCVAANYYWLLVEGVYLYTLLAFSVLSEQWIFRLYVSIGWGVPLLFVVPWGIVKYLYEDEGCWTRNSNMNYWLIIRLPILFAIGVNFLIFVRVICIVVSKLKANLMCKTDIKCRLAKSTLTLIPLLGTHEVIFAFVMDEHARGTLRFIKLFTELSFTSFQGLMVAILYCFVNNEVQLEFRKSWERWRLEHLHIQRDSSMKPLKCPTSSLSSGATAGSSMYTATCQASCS

The target of one assay is T1, human glucose-dependent insulinotropic peptide (gastric inhibitory polypeptide) receptor (human) (UniProt P48546).
T1 sequence (looked up): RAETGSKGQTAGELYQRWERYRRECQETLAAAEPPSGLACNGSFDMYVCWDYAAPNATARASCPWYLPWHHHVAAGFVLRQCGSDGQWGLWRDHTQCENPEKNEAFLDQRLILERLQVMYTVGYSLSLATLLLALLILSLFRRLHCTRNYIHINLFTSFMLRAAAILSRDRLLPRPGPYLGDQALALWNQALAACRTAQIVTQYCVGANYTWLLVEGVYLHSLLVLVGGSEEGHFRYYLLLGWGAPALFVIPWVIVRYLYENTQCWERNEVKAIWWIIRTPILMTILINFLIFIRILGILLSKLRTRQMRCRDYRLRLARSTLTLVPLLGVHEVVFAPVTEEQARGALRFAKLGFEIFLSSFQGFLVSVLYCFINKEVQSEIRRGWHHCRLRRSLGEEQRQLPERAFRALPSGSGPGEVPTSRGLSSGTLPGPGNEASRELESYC
Kind of assay: cell-based or functional assay.
The molecule B1 returned a cAMP EC50 (assay 1) of 74.1 nM.
Regarding B2, the cAMP EC50 (assay 1) was 64 nM.
On the same count and under the same terms, the value for B3 was 79 nM.
B4 registered a cAMP EC50 (assay 1) of 89.6 nM.
The same measure, in the same setting: the same measure for B5: 100 nM; for B6: 15.2 nM.
Still for that read-out and setting: the value for B7 was 99.7 nM.

The target of another assay is human glucagon receptor (human, UniProt P47871 26-477). In words: cell-based or functional assay.
Chain of human glucagon receptor (P47871 26-477): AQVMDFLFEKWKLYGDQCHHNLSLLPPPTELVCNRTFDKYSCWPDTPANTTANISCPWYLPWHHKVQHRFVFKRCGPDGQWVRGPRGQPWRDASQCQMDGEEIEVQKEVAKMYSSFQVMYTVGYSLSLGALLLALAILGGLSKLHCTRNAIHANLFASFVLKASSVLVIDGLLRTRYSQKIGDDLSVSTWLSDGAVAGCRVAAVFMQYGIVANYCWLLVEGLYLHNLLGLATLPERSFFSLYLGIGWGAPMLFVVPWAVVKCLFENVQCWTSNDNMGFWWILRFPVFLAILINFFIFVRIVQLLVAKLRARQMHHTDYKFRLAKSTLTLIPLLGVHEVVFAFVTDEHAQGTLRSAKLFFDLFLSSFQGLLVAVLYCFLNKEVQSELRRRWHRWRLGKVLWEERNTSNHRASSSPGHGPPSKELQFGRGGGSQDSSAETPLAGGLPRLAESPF
B1 displayed a cAMP EC50 (assay 1) of 0.493 pM.
The molecule B2 showed a cAMP EC50 (assay 1) of 0.792 pM.
B3 showed a cAMP EC50 (assay 1) of 10.4 pM.
Consider B4, for which the cAMP EC50 (assay 1) was determined as 2.19 pM.
Still for that read-out and setting: the same measure for B5: 15.5 pM; for B6: 1.68 pM.
B7 gave a cAMP EC50 (assay 1) of 1.44 pM.

A further assay concerns the target human GLP-1 receptor (human, UniProt P43220 24-463). Kind of assay: cell-based or functional assay.
On to B1, for which the cAMP EC50 (assay 1) is 39.8 pM.
B2: the cAMP EC50 (assay 1) was determined as 12 pM.
Same read-out and setting: the value for B3 was 86.3 pM; that for B4 was 21.2 pM.
Same read-out and setting: the same measure for B5: 124 pM; for B6: 25.1 pM.
In turn, B7 yielded a cAMP EC50 (assay 1) of 22.8 pM.
